Results reported in patent US20260258131A1 (ADAGENE PTE, published 2026).
Substitutions are numbered along the chain they refer to. Numbers in names are those of the source. One block for each binder: values may come before it.

Assays:
[1] = target: T1, Recombinant human CTLA4-hisFc (human, UniProt P16410 36-161, limits assumed); assay: ELISA, coated CTLA4-hisFc, after MMP-9 cleavage
T1 construct: Coated on the ELISA plate; the whole UniProt entry is named; also called recombinant human CLTA4-hisFc; its antigen; not shown: his tag and Fc
T1 sequence (looked up): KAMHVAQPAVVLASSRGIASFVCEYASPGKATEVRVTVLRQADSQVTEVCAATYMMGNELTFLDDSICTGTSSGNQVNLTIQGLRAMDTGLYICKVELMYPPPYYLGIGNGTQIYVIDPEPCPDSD
Method: (§1) Plates were blocked with PBS supplemented with 3% non-fat milk at 37° C. for 1 hour. After washing, 100 µL of 3-fold serial dilutions of antibodies were added to each well. After incubation at 37° C. for 1 hour, plates were washed four times, and 100 μL HRP conjugated anti-human IgG (Fab specific) (1:6000 dilution) was added to each well. Plates were incubated at 37° C. for 1 hour, washed four times, and then 50 μL TMB substrate solution was added to each well, and the plate was incubated at room temperature. Absorbance at 450 nm was measured after the reactions were stopped with 50 μL H2SO4 per well. The EC50 was evaluated by fitting the ELISA data using the sigmoidal (four-parameter logistic equation) model of GraphPad Prism 6 software. Experiments for some activatable antibodies were performed twice or more, leading to two or more calculated masking efficiencies being obtained for each of these activatable antibodies.
(§2) The purified activatable antibodies were treated with the proteases which recognize the cleavage sequences, and were then tested to determine whether removal of the masking peptide restored their activity. […] The reactions were carried out at 37° C. for 24 hours. […] The masking efficiency was then measured by ELISA as described above.

[2] = target: recombinant mouse CTLA-4 protein (mouse, UniProt P09793 36-161, limits assumed); assay: SPR (Biacore), antibody captured by anti-human IgG Fc, CTLA-4 in flow
Method: (§3) Serial dilutions of recombinant CTLA-4 proteins of different species origins were sequentially loaded and flowed through the chip to measure the kinetics of CTLA-4 antigen association (kₐ), followed by a buffer flow-through phase for dissociation kinetics (kd) measurement. The binding affinity (KD) is then calculated with […].

[3] = target: T2, recombinant rat CTLA-4 protein (rat, UniProt Q62859 36-161); assay: as above
T2 sequence: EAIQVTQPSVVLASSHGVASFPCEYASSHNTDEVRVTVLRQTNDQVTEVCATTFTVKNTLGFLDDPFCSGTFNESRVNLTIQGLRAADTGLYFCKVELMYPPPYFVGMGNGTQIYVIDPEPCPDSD
Method: as §3

[4] = target: T3, biotinylated CTLA-4 protein (UniProt P16410 36-161, limits assumed, biotinylated (sites not given)); assay: competition ELISA, biotinylated CTLA-4 on coated CD80 (competitor CD80)
T3 construct: also called receptor CTLA-4
T3 sequence (looked up): T1 sequence (looked up)
Description: (§4) Relative CTLA-4 and its ligand binding was monitored by reading the absorbance at 450 nm wavelength in the micro-plate reader.

[5] = target: T3, biotinylated CTLA-4 protein; assay: competition ELISA, biotinylated CTLA-4 on coated CD86 (competitor CD86)
Description: as §4

[6] = target: T4, recombinant human CTLA-4 protein (human, UniProt P16410 36-161, limits assumed); assay: SPR (Biacore), antibody captured by anti-human IgG Fc, CTLA-4 in flow
T4 sequence (looked up): T1 sequence (looked up)
Method: as §3

[7] = target: T5, recombinant cynomolgus monkey CTLA-4 protein (cynomolgus monkey, UniProt G7PL88 36-161); assay: as above
T5 sequence: T1 sequence (looked up) with S14N, I18T, L106M
Method: as §3

[8] = target: T6, human CTLA4 expressed on cells (human, UniProt P16410 36-223); assay: cell-based or functional assay
T6 sequence (looked up): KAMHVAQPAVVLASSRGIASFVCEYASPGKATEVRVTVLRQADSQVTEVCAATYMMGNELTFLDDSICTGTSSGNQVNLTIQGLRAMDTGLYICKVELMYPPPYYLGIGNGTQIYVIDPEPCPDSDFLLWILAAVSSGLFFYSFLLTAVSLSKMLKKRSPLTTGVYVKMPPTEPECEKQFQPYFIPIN

[9] = target: T1, Recombinant human CTLA4-hisFc; assay: ELISA, coated CTLA4-hisFc
Method: as §1, §2

EC50 [1]: 0.313 nM
Kd [2]: 0.63 nM
Kd [3]: 0.69 nM
IC50 [4]: 280 nM
IC50 [5]: 17.5 nM
B1: TY24652-MMP9 (antibody, IgG1)
heavy: not shown
light: DIQLTQSPSSLSASVGDRVTITCRASQSVRGRFLAWYQQKPGKAPKLLIYDASNRATGIPSRFSGSGSGTDFTLTISSLQPEDFATYYCQQSSSWPPTFGQGTKVEIKRTVAAPSVFIFPPSDEQLKSGTASVVCLLNNFYPREAKVQWKVDNALQSGNSQESVTEQDSKDSTYSLSSTLTLSKADYEKHKVYACEVTHQGLSSPVTKSFNRGEC
notes: TY24652 after 24 h with MMP-9; IgG1 Fc with S239D/I332E

Kd [6]: 32.5 nM
Kd [7]: 32.3 nM
Kd [2]: 49.4 nM
Kd [3]: 59.5 nM
IC50 [4]: > 20000 nM
IC50 [5]: > 4000 nM
B2: TY24652 (antibody, human IgG1, kappa)
heavy: not shown
light: ETLCEPFATSVCRPGGGPLGLAGGGSDIQLTQSPSSLSASVGDRVTITCRASQSVRGRFLAWYQQKPGKAPKLLIYDASNRATGIPSRFSGSGSGTDFTLTISSLQPEDFATYYCQQSSSWPPTFGQGTKVEIKRTVAAPSVFIFPPSDEQLKSGTASVVCLLNNFYPREAKVQWKVDNALQSGNSQESVTEQDSKDSTYSLSSTLTLSKADYEKHKVYACEVTHQGLSSPVTKSFNRGEC
notes: also called non-cleaved form TY24652

ADCP reporter activity (luciferase), EC50 [8]: 5.6 nM
EC50 [9]: 0.298 nM
Kd [7]: 0.37 nM
Kd [2]: 0.5 nM
Kd [3]: 0.78 nM
B3: TY21580 (antibody, human IgG1, V domains shown)
VH: EVQLVESGGGLVQPGGSLRLSCAASGYSISSGYHWSWIRQAPGKGLEWLARIDWDDDKYYSTSLKSRLTISRDNSKNTLYLQLNSLRAEDTAVYYCARSYVYFDYWGQGTLVTVSS
VL: DIQLTQSPSSLSASVGDRVTITCRASQSVRGRFLAWYQQKPGKAPKLLIYDASNRATGIPSRFSGSGSGTDFTLTISSLQPEDFATYYCQQSSSWPPTFGQGTKVEIKR
notes: also called parental antibody TY21580
